Test results taken from the RNAGym collection of RNA variant scans (doi:10.7554/elife.80360).

B1: HDV Ribozyme (parent)
chain: GGCCGGCAUGGUCCCAGCCUCCUCGCUGGCGCCGGCUGGGCAACAUUCCGAGGGGACCGUCCCCUCGGUAAUGGCGAAUGGGACCCA

Variants of: B1
Assay: self-cleavage, relative activity (ratio to wild type); higher = more cleavage; co-transcriptional

Variant	self-cleavage
C21A C75A	0
G10A A45C	0.219
C57G A83U	0.587
G68U U79C	0.415
C4G G11A	0.104
C26A G59C	0.944
C33G U47C	0.317
A16G U79A	0.997
C13G U60C	0
G1C G82C	0.0504
U9A G10U	0.855
G29U C32U	0.0665
C30U U60C	0.831
U23C G55C	0.914
G25C	0.0909
G38U C48A	0.0978
G5C U79A	0.185
C32U C63U	0.817
U20C A87U	0.189
G38U G82C	0.218
U69C A77U	0.598

Variant	self-cleavage
G5C C61A	0.432
C24G A70C	0.0978
C33U C75A	0.0923
C49A C58G	0.988
G29A G39C	0.0941
U46A C84A	0.629
G38U A70G	0.227
C30A C63U	0.415
G50U G81U	0.341
G80C C85A	0.117
U46A U72G	0.65
G73C G82A	0.175
G28U G29C	0.106
G68C C84G	0.639
G2A C4U	0.163
A51G U69G	1.09
C3G A45G	0.816
A8G G82A	0.237
U72C C86U	0.57
A8G A71U	0.902
G59C C61A	0.969

Variant	self-cleavage
C66A G80U	0.304
G2C C84G	0.0639
C75U A78U	0.264
C3U C62A	0.973
C3G C66A	0.585
G11A G31A	0.114
U9A U23G	0.7
C13G U47G	0.151
C7A G38A	0.0639
A8C C85A	0.831
C44U A70C	0.831
G11U G59A	0.499
C24G A45G	0.222
C7A G31A	0.87
G2C G29A	0.155
C4U C44G	0.214
A16C C57G	0.646
G2C G25A	0.0528
C36A G55A	0.188
C44U A78U	0.148
A71U C86G	0.752

Variant	self-cleavage
G40C C49A	0.381
G2A G76A	0.0391
G40C C58G	0.264
C26G G55U	0.975
U23G G53A	0.306
C30G U47G	0.0678
C18U C57U	0.867
A56U G59C	1.01
G50A C85A	0.941
G28C U72G	0.138
G39A U46A	0.0773
G59U G81C	0.223
G54A A56U	0.878
G40C G55A	0.121
G29U G38U	0.141
G11A C84U	0.991
C36G G52U	0.14
U9A G68U	1.08
C61A C84A	0.831
C4A U23C	0.0978
C44G G55C	0.898
